Laboratory results published in patent publication US20020152485A1 (BOSTON HEART FOUNDATION, published 2002).

What was measured:
[1] = biological target: T1, native human low density lipoprotein (LDL) (human, UniProt P04114 28-4563); assay: affinity coelectrophoresis (ACE): 125I-LBP-2 run through LDL cast in agarose; binding curve
T1 construct: This is a lipoprotein particle (protein plus lipid), not an isolated polypeptide; also called native LDL; cold LDL
Procedure: (§1) Analysis of the affinity and specificity of recombinant rabbit LBP-1, LBP-2 or LBP-3 binding to LDL was carried out using the principle of affinity electrophoresis (Lee and Lander, Proc. Natl. Acad. Sci. USA 88:2768-2772 (1991)). Melted agarose (1%; 65° C.) was prepared in 50 mM sodium MOPS, pH 7.0; 125 mM sodium acetate, 0.5% CHAPS. A teflon comb consisting of nine parallel bars (45×4×4 mm/3 mm spacing between bars) was placed onto GelBond film (FMC Bioproducts, Rockland, Me.) fitted to a plexiglass casting tray with the long axis of the bars parallel to the long axis of the casting tray. A teflon strip (66×1×1 mm) was placed on edge with the long axis parallel to the short axis of the casting tray, at a distance of 4 mm from the edge of the teflon comb. Melted agarose (>65° C.) was then poured to achieve a height of approximately 4 mm. […] LDL or HDL samples were prepared in gel buffer (50 mM sodium MOPS, pH 7.0, 125 mM sodium acetate) at twice the desired concentration. Samples were then mixed with an equal volume of melted agarose (in 50 mM MOPS, pH 7.0; 125 mM sodium acetate; 50° C.), pipetted into the appropriate rectangular wells and allowed to gel. The binding affinity and specificity of LBP-1 and LBP-3 was tested using several concentrations of LDL (540 to 14 nM) and HDL (2840177 nM). […]

[2] = biological target: T1, native human low density lipoprotein …; assay: affinity coelectrophoresis (ACE): 125I-LBP-3 run through LDL cast in agarose; binding curve
Procedure: as §1

T1 sequence (P04114 28-4563): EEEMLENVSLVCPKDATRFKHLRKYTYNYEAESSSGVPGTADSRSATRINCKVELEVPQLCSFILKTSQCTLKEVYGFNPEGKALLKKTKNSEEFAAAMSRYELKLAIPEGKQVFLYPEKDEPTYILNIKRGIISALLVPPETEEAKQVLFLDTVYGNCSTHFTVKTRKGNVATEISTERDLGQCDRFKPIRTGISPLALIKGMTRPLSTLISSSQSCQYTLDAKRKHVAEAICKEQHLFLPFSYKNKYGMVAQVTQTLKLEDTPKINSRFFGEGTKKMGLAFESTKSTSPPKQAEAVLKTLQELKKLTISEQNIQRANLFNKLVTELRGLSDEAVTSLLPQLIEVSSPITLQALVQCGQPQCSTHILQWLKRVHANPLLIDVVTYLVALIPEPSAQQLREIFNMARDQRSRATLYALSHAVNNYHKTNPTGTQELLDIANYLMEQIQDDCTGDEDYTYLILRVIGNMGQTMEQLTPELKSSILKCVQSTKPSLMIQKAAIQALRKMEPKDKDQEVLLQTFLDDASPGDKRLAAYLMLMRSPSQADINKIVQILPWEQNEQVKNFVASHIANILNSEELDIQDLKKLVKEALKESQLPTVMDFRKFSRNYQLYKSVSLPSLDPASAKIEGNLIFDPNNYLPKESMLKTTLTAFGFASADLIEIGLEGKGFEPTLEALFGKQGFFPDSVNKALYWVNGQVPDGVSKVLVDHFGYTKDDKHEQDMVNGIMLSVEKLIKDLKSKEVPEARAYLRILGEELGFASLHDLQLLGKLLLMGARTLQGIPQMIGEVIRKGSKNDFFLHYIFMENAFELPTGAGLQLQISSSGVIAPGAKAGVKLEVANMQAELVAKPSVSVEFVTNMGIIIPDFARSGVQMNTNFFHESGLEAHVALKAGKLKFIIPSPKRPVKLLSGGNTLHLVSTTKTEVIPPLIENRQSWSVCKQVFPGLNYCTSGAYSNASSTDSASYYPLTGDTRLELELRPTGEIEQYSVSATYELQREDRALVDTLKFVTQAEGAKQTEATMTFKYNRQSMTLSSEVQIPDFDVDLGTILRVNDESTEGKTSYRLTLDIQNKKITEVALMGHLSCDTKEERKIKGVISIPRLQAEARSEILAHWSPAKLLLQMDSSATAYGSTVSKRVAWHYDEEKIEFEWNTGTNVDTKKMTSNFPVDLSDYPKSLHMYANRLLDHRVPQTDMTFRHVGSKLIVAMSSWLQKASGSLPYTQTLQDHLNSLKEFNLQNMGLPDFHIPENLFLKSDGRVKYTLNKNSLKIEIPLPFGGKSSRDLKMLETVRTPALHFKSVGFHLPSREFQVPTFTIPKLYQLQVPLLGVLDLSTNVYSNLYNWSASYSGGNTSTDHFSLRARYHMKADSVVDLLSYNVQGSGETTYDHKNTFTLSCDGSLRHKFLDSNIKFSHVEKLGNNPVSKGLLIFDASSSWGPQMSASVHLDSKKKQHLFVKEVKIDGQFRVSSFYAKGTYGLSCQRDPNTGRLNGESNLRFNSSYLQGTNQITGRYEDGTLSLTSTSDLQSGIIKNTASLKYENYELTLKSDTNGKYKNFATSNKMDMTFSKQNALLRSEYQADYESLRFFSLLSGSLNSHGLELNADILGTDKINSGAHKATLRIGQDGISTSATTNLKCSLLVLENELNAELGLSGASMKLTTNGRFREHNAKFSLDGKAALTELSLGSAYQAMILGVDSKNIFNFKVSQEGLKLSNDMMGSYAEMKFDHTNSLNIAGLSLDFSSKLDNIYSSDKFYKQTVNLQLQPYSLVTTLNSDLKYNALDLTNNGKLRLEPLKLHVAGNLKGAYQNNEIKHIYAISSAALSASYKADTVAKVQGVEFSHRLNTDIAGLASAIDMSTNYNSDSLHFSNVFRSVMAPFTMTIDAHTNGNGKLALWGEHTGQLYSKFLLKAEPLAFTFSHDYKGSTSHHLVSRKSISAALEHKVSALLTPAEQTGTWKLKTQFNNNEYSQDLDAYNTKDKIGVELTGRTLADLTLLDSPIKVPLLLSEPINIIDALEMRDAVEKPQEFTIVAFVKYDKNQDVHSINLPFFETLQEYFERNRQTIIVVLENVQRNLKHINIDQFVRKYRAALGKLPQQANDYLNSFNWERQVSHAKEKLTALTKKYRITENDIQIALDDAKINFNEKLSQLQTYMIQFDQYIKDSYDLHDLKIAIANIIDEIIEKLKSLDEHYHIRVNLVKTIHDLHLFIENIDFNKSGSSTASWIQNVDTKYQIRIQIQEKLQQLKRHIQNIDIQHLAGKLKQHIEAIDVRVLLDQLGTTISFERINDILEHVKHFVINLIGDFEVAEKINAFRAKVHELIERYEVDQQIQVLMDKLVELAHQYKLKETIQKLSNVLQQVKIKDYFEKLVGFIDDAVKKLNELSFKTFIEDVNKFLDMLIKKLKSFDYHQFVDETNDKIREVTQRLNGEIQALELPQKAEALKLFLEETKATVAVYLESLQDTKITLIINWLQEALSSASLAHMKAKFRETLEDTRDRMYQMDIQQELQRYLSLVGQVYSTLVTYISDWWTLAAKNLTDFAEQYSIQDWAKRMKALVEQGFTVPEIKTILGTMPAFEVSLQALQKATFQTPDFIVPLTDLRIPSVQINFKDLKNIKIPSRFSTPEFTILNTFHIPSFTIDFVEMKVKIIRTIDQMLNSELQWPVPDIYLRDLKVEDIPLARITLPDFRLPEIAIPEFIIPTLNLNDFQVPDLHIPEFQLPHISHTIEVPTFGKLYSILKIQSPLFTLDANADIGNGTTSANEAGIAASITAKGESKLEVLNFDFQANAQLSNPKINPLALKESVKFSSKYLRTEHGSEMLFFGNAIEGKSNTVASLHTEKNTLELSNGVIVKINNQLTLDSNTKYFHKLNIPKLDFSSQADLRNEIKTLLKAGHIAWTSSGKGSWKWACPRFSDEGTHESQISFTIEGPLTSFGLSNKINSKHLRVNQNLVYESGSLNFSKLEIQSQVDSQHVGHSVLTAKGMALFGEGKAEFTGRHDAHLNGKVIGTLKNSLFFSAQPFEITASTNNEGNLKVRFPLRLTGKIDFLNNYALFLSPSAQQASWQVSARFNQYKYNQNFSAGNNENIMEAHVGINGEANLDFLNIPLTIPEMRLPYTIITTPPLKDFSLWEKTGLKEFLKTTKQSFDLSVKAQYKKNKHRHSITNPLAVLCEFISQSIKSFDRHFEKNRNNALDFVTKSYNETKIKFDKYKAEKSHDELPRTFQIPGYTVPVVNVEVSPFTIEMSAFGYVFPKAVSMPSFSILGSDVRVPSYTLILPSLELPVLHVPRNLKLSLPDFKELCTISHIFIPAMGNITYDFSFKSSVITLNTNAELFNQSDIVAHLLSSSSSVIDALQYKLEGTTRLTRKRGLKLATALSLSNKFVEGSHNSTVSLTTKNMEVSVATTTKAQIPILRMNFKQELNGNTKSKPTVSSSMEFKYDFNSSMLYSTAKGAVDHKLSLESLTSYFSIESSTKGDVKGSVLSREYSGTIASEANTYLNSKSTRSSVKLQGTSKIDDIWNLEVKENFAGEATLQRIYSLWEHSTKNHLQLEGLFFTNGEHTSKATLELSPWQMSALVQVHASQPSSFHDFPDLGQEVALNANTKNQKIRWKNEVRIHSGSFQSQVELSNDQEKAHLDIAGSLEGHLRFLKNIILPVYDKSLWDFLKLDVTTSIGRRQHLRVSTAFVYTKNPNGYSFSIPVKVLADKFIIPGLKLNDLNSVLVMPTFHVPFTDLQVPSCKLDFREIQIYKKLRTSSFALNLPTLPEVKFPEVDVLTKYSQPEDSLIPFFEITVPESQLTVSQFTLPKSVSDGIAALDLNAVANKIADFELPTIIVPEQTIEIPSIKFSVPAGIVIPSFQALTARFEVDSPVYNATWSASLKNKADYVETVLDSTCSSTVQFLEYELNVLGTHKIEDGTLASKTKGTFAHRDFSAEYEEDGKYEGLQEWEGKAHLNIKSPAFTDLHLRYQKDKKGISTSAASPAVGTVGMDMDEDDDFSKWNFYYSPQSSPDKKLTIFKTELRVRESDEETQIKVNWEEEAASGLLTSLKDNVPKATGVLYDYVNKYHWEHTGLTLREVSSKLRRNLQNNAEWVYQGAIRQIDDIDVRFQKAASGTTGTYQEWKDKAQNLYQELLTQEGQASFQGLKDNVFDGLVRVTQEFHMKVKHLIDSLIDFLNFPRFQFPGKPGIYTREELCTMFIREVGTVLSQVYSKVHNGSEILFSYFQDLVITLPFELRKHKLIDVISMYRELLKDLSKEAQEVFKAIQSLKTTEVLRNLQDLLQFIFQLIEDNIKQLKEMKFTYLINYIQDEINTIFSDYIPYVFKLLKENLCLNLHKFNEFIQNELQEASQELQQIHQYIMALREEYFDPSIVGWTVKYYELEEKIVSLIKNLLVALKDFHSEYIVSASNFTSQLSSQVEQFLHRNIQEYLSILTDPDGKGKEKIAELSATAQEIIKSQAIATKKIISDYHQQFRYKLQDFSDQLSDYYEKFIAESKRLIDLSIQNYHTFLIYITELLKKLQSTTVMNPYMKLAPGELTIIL

Kd [1] [nM]	Kd [2] [nM]	Binder
100		recombinant rabbit LBP-2 clone 26 (6-His tag) (other, 125I-iodinated (Iodobeads) where used as the radiolabeled species in ACE assays, Clone 26 contains the acidic region, residues 338-365; also called LBP-2 (rabbit clone 26); clone 26 derived LBP-2; not shown: N-terminal 6-histidine tag from the pPROEX-HT vector) PPPPQQPQPPPEGGAARAGGPARPVSLREVVRYLGGSSGAGGRLTRGRVQGLLEEEAAARGRLERTRLGALALPRGDRPGRAPPAASARAARNKRAGEERVLEKEEEEEEEEDDEDDDDDVVSEGSEVPESDRPAGAQHHQLNGGERGPQTAKERAKEWSLCGPHPGQEEGRGPAAGSGTRQVFSMAALSKEGGSASSTTGPDSPSPVPLPPGKPALPGADGTPFGCPAGRKEKPADPVEWTVMDVVEYFTEAGFPEQATAFQEQEIDGKSLLLMQRTDVLTGLSIRLGPALKIYEHHIKVLQQGHFEDDDPEGFLG
	333	recombinant rabbit LBP-3 (6-His tag) (other, 125I-iodinated (Iodobeads) where used as the radiolabeled species in ACE assays, also called LBP-3 (80 kDa fragment); rabbit recombinant LBP-3; not shown: N-terminal 6-histidine tag from the pPROEX-HT vector) MKNQDKKNGAAKQPNPKSSPGQPEAGAEGAQGRPGRPAPAREAEGASSQAPGRPEGAQAKTAQPGALCDVSEELSRQLEDILSTYCVDNNQGAPGEDGVQGEPPEPEDAEKSRAYVARNGEPEPGTPVVNGEKETSKAEPGTEEIRTSDEVGDRDHRRPQEKKKAKGLGKEITLLMQTLNTLSTPEEKLAALCKKYAELLEEHRNSQKQMKLLQKKQSQLVQEKDHLRGEHSKAILARSKLESLCRELQRHNRSLKEEGVQRAREEEEKRKEVTSHFQMTLNDIQLQMEQHNERNSKLRQENMELAERLKKLIEQYELREEHIDKVFKHKDLQQQLVDAKLQQAQEMLKEAEERHQREKDFLLKEAVESQRMCELMKQQETHLKQQLALYTEKFEEFQNTLSKSSEVFTTFKQEMEKMTKKIKKLEKETTMYRSRWESSNKALLEMAEEKTLRDKELEGLQVKIQRLEKLCRALQTERNDLNKRVQDLSAGGQGPVSDSGPERRPEPATTSKEQGVEGPGAQVPNSPRATDASCCAGAPSTEASGQTGPQEPTTATA
